Data from patent US20110201104A1 (SUNGKYUNKWAN UNIVERSITY FOUNDATION FOR CORPORATE …, published 2011).

B1: 3D8 VL protein (light-chain variable domain of anti-DNA antibody 3D8) (other)
VL: DIVMSQSPSSLAVSAGEKVTMSCKSSQSLFNSRTRKNYLAWYQQKPGQSPKLLIYWASTRESGVPDRFTGSGPGTDFTLTISSVQAEDLAVYYCKQSYYHMYTFGSGTKLEIKRAD
notes: Isolated single VL domain of mouse (MRL-lpr/lpr) IgG2a/kappa antibody 3D8; It was expressed in E. coli from vector pIg20L-3D8 VL and purified on IgG-sepharose; This domain was immobilized on the CM5 chip in the SPR assay
B2: 3D8 VH protein (heavy-chain variable domain of anti-DNA antibody 3D8) (other)
VH: EVQLQQSGPELVKPGASVKMSCKASGYTFTSYVMHWVKQKPGQGLEWIGYINPYNDGTKYNEKFKGKATLTSDKSSSTAYMELSSLTSEDSAVYYCARGAYKRGYAMDYWGQGTSVTVSS
notes: Isolated single VH domain of mouse (MRL-lpr/lpr) IgG2a/kappa antibody 3D8; It was expressed in E. coli from vector pIg20H-3D8 VH and purified on IgG-sepharose

Molecular target: the molecule itself
Assay: size exclusion chromatography (HPLC, TSK G3000SWXL), phosphate buffer pH 7.4; self-association
Description: 0.02 ml of a protein (conc. 5-20 μM) was injected into a TSK G3000SWXL column (TosoHaas, Japan) and a phosphate buffer solution (50 mM sodium phosphate/150 mM NaCl, pH 7.4) was flowed therein at a flow rate of 0.7 ml/min and the chromatogram of the proteins was obtained from the absorbance at 280 nm.

Row | Protein | binding result
1 | B1 | no binding (tested: 5-20 µM)
2 | B2 | no binding (tested: 5-20 µM)
